These results are taken from patent publication US20250136709A1 (DEVELOPMENT CENTER FOR BIOTECHNOLOGY, published 2025).

Assay [1] deals with mCD73hF1 (mouse; human) (UniProt Q61503). Nature of the assay: ELISA, antibody titrated; panel mCD73 hF1.
The next assay concerns the target mCD73hF2 (mouse; human) (UniProt Q61503). Nature of the assay: ELISA, antibody titrated; panel mCD73 hF2.
A further assay addresses mCD73hF3 (mouse; human) (UniProt Q61503). Nature of the assay: ELISA, antibody titrated; panel mCD73 hF3.
The target of assay [2] is mCD73hF1 (mouse; human) (UniProt Q61503). Nature of the assay: ELISA, antibody titrated; right panel mCD73 hF1.
The next assay has as its target T1, mouse CD73 (mouse, UniProt Q61503 29-551, limits assumed).
T1 construct: Expressed in F293 cells and used in ELISA
T1 sequence (looked up): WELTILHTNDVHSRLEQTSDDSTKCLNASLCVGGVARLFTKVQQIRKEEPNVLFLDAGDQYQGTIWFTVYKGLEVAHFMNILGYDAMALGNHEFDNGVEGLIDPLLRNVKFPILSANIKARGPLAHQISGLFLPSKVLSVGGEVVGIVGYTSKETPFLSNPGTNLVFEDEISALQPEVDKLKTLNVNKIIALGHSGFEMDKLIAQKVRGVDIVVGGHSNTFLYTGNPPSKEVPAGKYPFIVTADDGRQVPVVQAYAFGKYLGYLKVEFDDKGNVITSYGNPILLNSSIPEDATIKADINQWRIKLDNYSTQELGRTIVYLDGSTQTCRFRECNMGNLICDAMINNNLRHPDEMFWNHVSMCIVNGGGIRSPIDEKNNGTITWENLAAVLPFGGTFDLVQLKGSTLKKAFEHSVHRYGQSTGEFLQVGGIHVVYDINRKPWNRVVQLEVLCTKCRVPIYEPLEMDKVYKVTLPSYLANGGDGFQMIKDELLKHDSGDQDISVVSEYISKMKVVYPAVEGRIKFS
Put plainly: ELISA, antibody titrated; left panel mCD73. An excerpt:
The binding affinities of the above four mutated antibodies, 10H5 antibody, Oleclumab, and IgG to mouse CD73 and mouse CD73 hF1 were respectively analyzed by using ELISA assay.

With Oleclumab (antibody), the EC50 (read off the curve) with mCD73hF1 (mouse; human) [1], with mCD73hF2 (mouse; human), with mCD73hF3 (mouse; human) and with mCD73hF1 (mouse; human) [2] was 100 pM each time.

B1: 10H5-CDRH1N35A (antibody, V domains shown)
VH: QVKLQQSGAELVKPGASVKISCKASGYVFSSYWIAWVKQRPGKGLEWIGQIYPGDGNTNYNRNFKGKATLTADKSSSTAYMQLSSLTSEDSAVYFCAGFADWGQGTTVTVSS
VL: DIELTQSPSSLSASLGERVSLTCRASQDIGDSLIWLQQEPDGTIKRLIYATSSLDSGVPKRFSGSRSGTSYSLTISSVEAEDAATYYCQQYSGYPLTFGSGTKLEIK
notes: Alanine mutant of 10H5; printed '10H5-CDRHIN35A'; also called 10H5-CDRHIN35A
With B1, the binding result with mouse CD73 is recorded as “no binding (tested: about 5e-8 M)”.

B2: 10H5-CDRL3Y91A (antibody, V domains shown)
VH: QVKLQQSGAELVKPGASVKISCKASGYVFSSYWINWVKQRPGKGLEWIGQIYPGDGNTNYNRNFKGKATLTADKSSSTAYMQLSSLTSEDSAVYFCAGFADWGQGTTVTVSS
VL: DIELTQSPSSLSASLGERVSLTCRASQDIGDSLIWLQQEPDGTIKRLIYATSSLDSGVPKRFSGSRSGTSYSLTISSVEAEDAATYYCQQASGYPLTFGSGTKLEIK
notes: Alanine mutant of 10H5
For the molecule B2, the binding result with mouse CD73 is on record as “no binding (tested: about 5e-8 M)”.

B3: 10H5-CDRH3F95A (antibody, V domains shown)
VH: QVKLQQSGAELVKPGASVKISCKASGYVFSSYWINWVKQRPGKGLEWIGQIYPGDGNTNYNRNFKGKATLTADKSSSTAYMQLSSLTSEDSAVYFCAGAADWGQGTTVTVSS
VL: DIELTQSPSSLSASLGERVSLTCRASQDIGDSLIWLQQEPDGTIKRLIYATSSLDSGVPKRFSGSRSGTSYSLTISSVEAEDAATYYCQQYSGYPLTFGSGTKLEIK
notes: Alanine mutant of 10H5
B3: the binding result in the assay with mouse CD73 is on record as “no binding (tested: about 5e-8 M)”.
